The values below come from publication PMC11754618 (2025).

For experiment [1], the target named is T1, His6-Mm.USP18 (46-368) (mouse, UniProt Q9WTV6 46-368).
T1 chain: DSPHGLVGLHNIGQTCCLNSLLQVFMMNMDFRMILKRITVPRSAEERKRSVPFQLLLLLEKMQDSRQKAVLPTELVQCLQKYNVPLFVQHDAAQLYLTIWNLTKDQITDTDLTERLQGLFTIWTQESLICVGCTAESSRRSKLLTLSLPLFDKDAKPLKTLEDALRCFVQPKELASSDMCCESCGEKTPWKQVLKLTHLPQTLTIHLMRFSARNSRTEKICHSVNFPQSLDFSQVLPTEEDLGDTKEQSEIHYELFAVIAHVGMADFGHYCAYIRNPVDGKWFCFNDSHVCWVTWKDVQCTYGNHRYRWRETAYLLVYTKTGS
Kind of experiment: SPR. (In SPR one partner is held on a chip, and binding of the other changes the refractive index at the surface.)

The target of experiment [2] is T2, His6-Hs.USP18 (16-372) (human, UniProt Q9UMW8 16-372).
T2 chain: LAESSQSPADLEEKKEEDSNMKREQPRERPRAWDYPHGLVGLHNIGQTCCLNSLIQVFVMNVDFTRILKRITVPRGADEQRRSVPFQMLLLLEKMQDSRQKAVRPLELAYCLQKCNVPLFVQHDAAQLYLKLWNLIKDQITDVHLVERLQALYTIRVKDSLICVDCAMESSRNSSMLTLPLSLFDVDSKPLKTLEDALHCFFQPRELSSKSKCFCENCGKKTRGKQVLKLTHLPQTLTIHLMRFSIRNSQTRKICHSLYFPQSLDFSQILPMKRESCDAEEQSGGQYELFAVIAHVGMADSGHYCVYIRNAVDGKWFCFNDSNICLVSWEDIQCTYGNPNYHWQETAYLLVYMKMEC
Kind of experiment: SPR.

B1: Ac-mISG15CTD[R153Phe(guan)]-OH (domain or fragment)
chain: LSILVRNERGHSNIYEVFLTQTVDTLKKKVSQREQVHEDQFWLSFEGRPMEDKELLGEYGLKPQSTVIKHLRLFG
modifications: N-terminal acetyl; Phe(guan) (guanidino-phenylalanine) at 153
What is called Kd is a measure of binding affinity in units of concentration. Lower therefore signals a tighter complex. Take B1: the Kd in experiment [1] came out at 1750 nM; in experiment [2] it was 1900 nM.

B2: Ac-mISG15CTD-OH (wild type) (domain or fragment)
chain: LSILVRNERGHSNIYEVFLTQTVDTLKKKVSQREQVHEDQFWLSFEGRPMEDKELLGEYGLKPQSTVIKHLRLRG
modifications: N-terminal acetyl
For the molecule B2, the Kd in experiment [1] was found to be 2500 nM; in experiment [2], 4300 nM.

B3: Ac-mISG15CTD[R153Agb]-OH (domain or fragment)
chain: LSILVRNERGHSNIYEVFLTQTVDTLKKKVSQREQVHEDQFWLSFEGRPMEDKELLGEYGLKPQSTVIKHLRLXG
modifications: N-terminal acetyl; Agb (2-amino-4-guanidino-butyric acid) at 153
In the case of B3, the Kd amounted to 4500 nM in experiment [1] and 1200 nM in experiment [2].
